Ends that are not written are not given here.
Molecular target: T1, LZ-Y
T1 chain: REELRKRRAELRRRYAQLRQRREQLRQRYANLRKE
Experiment: QRET time-resolved luminescence

Kd: 21 nM
Binder: KDTLQAETDQLEDEKSALQTEIANLLKEKEKLEFIL (also: nonadentate Eu(III) chelate label, position not given here) [EuLZ (leucine zipper peptide LZ, Eu-chelate labeled)]

From PMC11791991 (2024)
